Blank lines part the entries; values can stand above or below the substance they belong to.
Key:
[1] = target: recombinant UBE3A protein (Homo sapiens (Human)) (UniProt Q05086); assay: Simoa; capture GTX + helper beads; 3E5 0.4 ug/ml; UBE3A 0.00128 ng/ml
[2] = target: recombinant UBE3A protein (Homo sapiens (Human)) (UniProt Q05086); assay: Simoa head-to-head, Table 11; capture GTX; UBE3A 0.032 ng/ml
[3] = target: recombinant UBE3A protein (Homo sapiens (Human)) (UniProt Q05086); assay: Simoa; capture GTX, no helper beads; 3E5 0.4 ug/ml; UBE3A 0.800 ng/ml
[4] = target: recombinant UBE3A protein (Homo sapiens (Human)) (UniProt Q05086); assay: Simoa; capture GTX; SBG 100 pm; UBE3A 0.800 ng/ml
[5] = target: recombinant UBE3A protein (Homo sapiens (Human)) (UniProt Q05086); assay: Simoa; capture GTX; 3E5 0.8 ug/ml; UBE3A 20.0 ng/ml
[6] = target: recombinant UBE3A protein (Homo sapiens (Human)) (UniProt Q05086); assay: Simoa; capture GTX + helper beads; 3E5 0.1 ug/ml; UBE3A 0.00640 ng/ml
[7] = target: recombinant UBE3A protein (Homo sapiens (Human)) (UniProt Q05086); assay: Simoa; capture GTX, no helper beads; 3E5 0.1 ug/ml; UBE3A 0.00128 ng/ml
[8] = target: recombinant UBE3A protein (Homo sapiens (Human)) (UniProt Q05086); assay: Simoa head-to-head, Table 11; capture MS 2F6; UBE3A 0.032 ng/ml
[9] = target: recombinant UBE3A protein (Homo sapiens (Human)) (UniProt Q05086); assay: 3-step Simoa, 120 min bead step; capture GTX; UBE3A 0.00640 ng/ml
[10] = target: recombinant UBE3A protein (Homo sapiens (Human)) (UniProt Q05086); assay: 3-step Simoa, 120 min bead step; capture GTX; UBE3A 0.160 ng/ml
[11] = target: recombinant UBE3A protein (Homo sapiens (Human)) (UniProt Q05086); assay: Simoa head-to-head, Table 10; capture MS 2F6; UBE3A 4.00 ng/ml
[12] = target: recombinant UBE3A protein (Homo sapiens (Human)) (UniProt Q05086); assay: Simoa; capture GTX; 3E5 0.2 ug/ml; UBE3A 4.00 ng/ml
[13] = target: recombinant UBE3A protein (Homo sapiens (Human)) (UniProt Q05086); assay: Simoa head-to-head, Table 10; capture MS 2F6; UBE3A 0.80 ng/ml
[14] = target: recombinant UBE3A protein (Homo sapiens (Human)) (UniProt Q05086); assay: Simoa head-to-head, Table 11; capture MS 2F6; UBE3A 0.80 ng/ml
[15] = target: recombinant UBE3A protein (Homo sapiens (Human)) (UniProt Q05086); assay: Simoa; capture GTX + helper beads; 3E5 0.4 ug/ml; UBE3A 0.0320 ng/ml
[16] = target: recombinant UBE3A protein (Homo sapiens (Human)) (UniProt Q05086); assay: Simoa head-to-head, Table 11; capture GTX; UBE3A 4.00 ng/ml
[17] = target: recombinant UBE3A protein (Homo sapiens (Human)) (UniProt Q05086); assay: 3-step Simoa; capture GTX; UBE3A 500 ng/ml
[18] = target: recombinant UBE3A protein (Homo sapiens (Human)) (UniProt Q05086); assay: 3-step Simoa; capture GTX; UBE3A 1.95 ng/ml
[19] = target: recombinant UBE3A protein (Homo sapiens (Human)) (UniProt Q05086); assay: 2-step Simoa; capture GTX; UBE3A 31.3 ng/ml
[20] = target: recombinant UBE3A protein (Homo sapiens (Human)) (UniProt Q05086); assay: 2-step Simoa; capture GTX; UBE3A 0.488 ng/ml
[21] = target: recombinant UBE3A protein (Homo sapiens (Human)) (UniProt Q05086); assay: 3-step Simoa; capture GTX; UBE3A 31.3 ng/ml

UniProt Q05086, sequence (Q05086 whole entry): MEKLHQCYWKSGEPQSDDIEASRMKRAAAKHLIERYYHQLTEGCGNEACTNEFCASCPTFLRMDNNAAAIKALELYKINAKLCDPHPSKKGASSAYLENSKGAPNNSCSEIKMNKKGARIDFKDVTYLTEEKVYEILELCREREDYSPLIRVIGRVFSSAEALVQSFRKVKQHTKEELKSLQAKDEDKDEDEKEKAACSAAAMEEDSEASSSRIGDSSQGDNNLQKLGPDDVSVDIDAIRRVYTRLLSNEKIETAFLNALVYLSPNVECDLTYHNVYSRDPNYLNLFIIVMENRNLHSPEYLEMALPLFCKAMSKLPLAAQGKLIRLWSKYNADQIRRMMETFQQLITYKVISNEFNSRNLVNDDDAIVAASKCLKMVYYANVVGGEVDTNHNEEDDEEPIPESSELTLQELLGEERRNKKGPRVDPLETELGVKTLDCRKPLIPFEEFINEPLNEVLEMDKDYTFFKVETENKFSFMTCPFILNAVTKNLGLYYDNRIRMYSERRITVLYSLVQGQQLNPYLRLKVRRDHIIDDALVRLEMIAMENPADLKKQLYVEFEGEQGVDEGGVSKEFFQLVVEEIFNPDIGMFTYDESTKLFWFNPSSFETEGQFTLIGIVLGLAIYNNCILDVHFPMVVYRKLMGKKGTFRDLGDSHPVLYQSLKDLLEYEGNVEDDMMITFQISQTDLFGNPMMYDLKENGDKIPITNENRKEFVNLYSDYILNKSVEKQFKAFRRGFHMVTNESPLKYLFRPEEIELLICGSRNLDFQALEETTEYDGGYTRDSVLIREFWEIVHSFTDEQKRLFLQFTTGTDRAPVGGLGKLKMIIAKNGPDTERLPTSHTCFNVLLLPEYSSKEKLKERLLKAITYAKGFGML

AEB1 [1]: 0.0222 | AEB2 [1]: 0.0178 | Average AEB [1]: 0.02 | Signal to Background [1]: 1.02 | AEB1 [2]: 0.0127 | AEB2 [2]: 0.0142 | Ave AEB [2]: 0.0135 | Signal to Background [2]: 1.65 | AEB1 [3]: 0.335 | AEB2 [3]: 0.338 | Average AEB [3]: 0.337 | Signal to Background [3]: 17.2 | AEB1 [4]: 0.21 | AEB2 [4]: 0.214 | AEB3 [4]: 0.211 | Average AEB [4]: 0.212 | Signal to Background [4]: 25.3 | AEB1 [5]: 9.16 | AEB2 [5]: 10.3 | AEB3 [5]: 9.37 | Average AEB [5]: 9.62 | Signal to Background [5]: 78.5 | AEB1 [6]: 0.0065 | AEB2 [6]: 0.0045 | Average AEB [6]: 0.0055 | Signal to Background [6]: 0.962 | AEB1 [7]: 0.005 | AEB2 [7]: 0.0075 | Average AEB [7]: 0.0062 | Signal to Background [7]: 1.09 | AEB1 [8]: 0.0032 | AEB2 [8]: 0.0043 | Ave AEB [8]: 0.0037 | Signal to Background [8]: 0.986 | AEB1 [9]: 0.0054 | AEB2 [9]: 0.0055 | Ave AEB [9]: 0.0055 | Signal to Background [9]: 3.22 | AEB1 [10]: 0.0398 | AEB2 [10]: 0.0389 | Ave AEB [10]: 0.0393 | Signal to Background [10]: 23.1 | AEB1 [11]: 0.132 | AEB2 [11]: 0.127 | Ave AEB [11]: 0.13 | Signal to Background [11]: 9.58 | AEB1 [12]: 1.18 | AEB2 [12]: 2.32 | AEB3 [12]: 1.18 | Average AEB [12]: 1.56 | Signal to Background [12]: 39.7 | AEB1 [13]: 0.0353 | AEB2 [13]: 0.037 | Ave AEB [13]: 0.0361 | Signal to Background [13]: 2.67 | AEB1 [14]: 0.0183 | AEB2 [14]: 0.0197 | Ave AEB [14]: 0.019 | Signal to Background [14]: 5.03 | AEB1 [15]: 0.037 | AEB2 [15]: 0.0369 | Average AEB [15]: 0.037 | Signal to Background [15]: 1.89 | AEB1 [16]: 0.269 | AEB2 [16]: 0.262 | Ave AEB [16]: 0.266 | Signal to Background [16]: 32.4
Substance: anti-UBE3A antibody 3E5 (SAB1404508-100 ug, Millipore-Sigma)

AEB1 [17]: 0.229 | AEB2 [17]: 0.218 | Ave AEB [17]: 0.224 | Signal to Background [17]: 102 | AEB1 [18]: 0.0052 | AEB2 [18]: 0.0042 | Ave AEB [18]: 0.0047 | Signal to Background [18]: 1.44 | AEB1 [19]: 0.141 | AEB2 [19]: 0.126 | Ave AEB [19]: 0.134 | Signal to Background [19]: 40.8 | AEB1 [20]: 0.0073 | AEB2 [20]: 0.0069 | Ave AEB [20]: 0.0071 | Signal to Background [20]: 2.16 | AEB1 [21]: 0.0425 | AEB2 [21]: 0.046 | Ave AEB [21]: 0.0443 | Signal to Background [21]: 20.3
Substance: NB500-240 (Novus) (antibody)
